Assay: N-acetyl-β-amino acid acylase activity and optical selectivity of purified enzymes and cell-free extracts
Type: biochemical
Details: 30° C.; for Specific activity: purified enzyme after Mono-Q, 10 mM N acetyl-(R,S)-β-Phe, 50 mM Tris-HCl (pH 7.6); for Optical specificity (β-Phe enantiomer produced): purified enzyme, N-acetyl-(R,S)-β-Phe, 30 minutes
Method: 10 mM N acetyl-(R,S)-β-Phe, 50 mM Tris-HCl (pH 7.6), and a reaction solution containing a suitable enzyme sample were left standing from 15 minutes to 2 hours at 30° C., and then processed by boiling for 5 minutes to stop the reaction. The reaction solution was centrifuged. The supernatant was suitably diluted and then analyzed by HPLC. Acylase activity that produced 1 μmol of (R)-β-Phe or (S)-β-Phe per minute under these standard reaction conditions was defined as one unit. Activity producing (R)-β-Phe from N-acetyl-(R,S)-β-Phe will be referred to as N-acetyl-(R)-β-Phe acylase activity and activity producing (S)-β-Phe will be referred to as N-acetyl-(S)-β-Phe acylase activity hereinafter.
(R)-β-Phe, (S)-β-Phe, N-acetyl-(R)-β-Phe, and N-acetyl-(S)-β-Phe were quantitatively analyzed. The column employed was an Inertsil ODS3 (0.46 cm in diameter, 5 cm) made by GL Science and a Chiralpak WH (0.46 cm in diameter, 25 cm) made by Daisel Chemical Industries, arranged consecutively in that order. The mobile phase was 0.25 mM CuSO4, 2 percent (v/v) acetonitrile. The flow rate was 1.5 mL/minute. The column temperature was 50° C. Detection was conducted with a UV detector at 210 nm. In this analysis, the above four compounds eluted out at different elution times. The elution sequence, in order of elution speed, was (S)-β-Phe, (R)-β-Phe, N-acetyl-(R)-β-Phe, and N-acetyl-(S)-β-Phe. The quantities were calculated from the peak area values relative to various standard products.
An Inertsil Ph-3 (0.46 cm in diameter, 25 cm) column made by GL Science was employed. The mobile phase was 10 percent acetonitrile (adjusted to pH 3.0 with phosphoric acid). The temperature was 40° C. The flow rate was 1.0 mL/min. Detection was conducted under UV conditions of 210 nm and peak area values were calculated based on comparison with various standard racemic products.
Optical selectivity was measured using the purified enzymes as enzyme sources. Reactions were conducted under the above enzyme conditions for a period of 30 minutes. The quantity of enzyme added was 4.6 μg/mL (N-acetyl-(R)-β-amino acid acylase) or 3.1 μg/mL (N-acetyl-(S)-β-amino acid acylase).
The K83 strain obtained was precultured for 16 hours at 37° C. in LB medium containing 100 mg/L of ampicillin. A 1 mL quantity of the cultured bacterial cells was transferred to 50 mL of TB medium containing 100 mg/L of ampicillin and 1 mM of IPTG and cultured for 16 hours at 30° C. […] When the N-acetyl-β-amino acid acylase activity was measured under the separation conditions of N-acetyl-β-Phe and β-Phe, a value of 2.3 U/mg was obtained.
JM109/ptrp4—3BR was cultured for 16 hours at 37° C. in LB medium containing 100 mg/L of ampicillin. […] The quantity of β-Phe produced was measured by HPLC. […]

B1: N-acetyl-(S)-β-amino acid acylase: enzyme purified from Burkholderia sp. AJ110349, subunit about 41 kDa, SEQ. ID. NO. 10 (protein)
chain: MDFCQMNDLASRKGRIQTVLGLIDPHELGPALMHEHLLIDLVPPKLAEDADHDQTEIDLCNCWKINYGQVPSLKNYRLDQKDVAVEELLEMRAAGGSAIVDLTTGGLKPDPQGLAQISREAGVHVVMGCGHYVHEYQDAANAHRSVDDFASEMIGQITEGAWGTQVRAGIIGEIGCQSPWTEQEKRVVRGALIAQQETGAALNIHPGRHAEQPQEVIDTIKSLGYPVERVIISHIDRTIFDDTRLLRLADSGCVIELDLFGWEQSAYPMSDIDMPNDGARLRMVRTLLDHGHAERVLISHDICTRTRLGRYGGHGYQHIFANVVPRMLRRDFTQDEIDTLLTRNPRRLLTFV
modifications: Burkholderia sp.AJ110349
notes: enzyme purified from Burkholderia sp; ID; NO; 10
  Specific activity: 13.1 U/mg
  Optical specificity (β-Phe enantiomer produced): Only the production of (S)-β-Phe was observed

B2: N-acetyl-(R)-β-amino acid acylase: enzyme purified from Burkholderia sp. AJ110349, subunit about 84 kDa, SEQ. ID. NO. 8 (protein)
chain: MITITGYSDVLSAGPGETVEFKVSSKSPHPFTAELVRVIHADPNPAGPGMRFEPLGQVFSGTFASFDKPLLPGSFARVSGVPAAGSAAGLVAGARIRPTALARGDQCVMSQWNTARHAGFALLVSERGLELRLGAGTGEPPVCVLCAARLEVRWYDVWFAIDTASNRIEVGVTEVDGSVAAPVRHRTLQMLDARWRAPHSDDAADLLIGALEDGAGRRAHFNGQIEAPFVADALPSPATPAATVEYAAPRASDFSTDALYAAWDFARGIDTLKIADTTPHARHGTLQNLPTRAVRSSAWNGRERCWRTAPAHYAAIHFHDDDLHDAGWSTDFAFTVPATLKSGAYAMRLSVDGATDYLPFYVRPELGRPGAPLVFVAATYTYQAYANYARGNFDAALRDKVGRWGAYPHNPDDHPEVGLATYNLHSDGSGVMFSSRLRPMLTMRPGFLTFDDSRGSGCRHYIADSHLLDWLEHEGFSFDVVTDDDLERFGAALLEPYAAVLTGTHPEYHTAATLDALAGYKRSGGNLAYLGGNGFYWRVGRSERVPGALEVRRTEGGVRAWAAEAGEYFHALDGEYGGLWRSSARTPQQLVGVGFSSQGPFEGSHYRVLDAARSQPGGSLLKDIAGPLFGGYGLSGGGAAGFELDSTEAADGTPANVIILARSESHSAAFGPALDALLSHTATRARKTPDTLIRSEIVYYETGYGGAVFSVGSITFCGALSHNDYRNDVSTLLRNVLIRFSRDRGAQAHAVPAVAHTEVD
modifications: Burkholderia sp. AJ110349
  Specific activity: 12.4 U/mg
  Optical specificity (β-Phe enantiomer produced): only the production of (R)-β-Phe was observed

Reference: patent US7858348B2, “N-acetyl-(R,S)-beta-amino acid acylase gene” (Ajinomoto Co., Inc., priority 2006, dated 2010)
